Laboratory results as given in patent US20160223529.

B1: TVMV-AI-CalmodulinBinder (protein)
chain: SKALLKGVRDFNPISACVCLLENSSDGHSERLFGIGFGPYIIANQHLFRRNNGELTIKTMHGEFKVKNSTQLQMKPVEGRDIIVIKMAKDFPPFPQKLKFRQPTIKDRVCMVSTNFQQKSVSSLVSESSHIVHKEDTSFWQHWITTKDGQCGSPLVSIIDGNILGIHSLTHTTNGSNYFVEFPEKFVATYLDAADGWCKNWKFNADKISWGSFILWEDAPEDFMSGLVPRGVGREYVRFAPRWKKNFIAVSAANRFKKISSSGAL
B2: HCV-SH3^dom with C-terminal TVMV-inducible AI-domain (protein)
chain: SMSTSGSGGAEYVRALFDFNGNDEEDLPFKKGDILRIRDKPEEQWWNAEDSEGKRGMIPVPYVEKYRPASASVSALIGGRGGSGGSGGSGGSGGSGGSAKGSVVIVGRINLSGDTAYSQQTRGAAGIAATSATGRDKNQVDGEVQVLSTATQSFLATCVNGVCWTVYHGAGSKTLAGPKGPITQMYTNVDQDLVGWPAPPGARSMTPCTCGSSDLYLVTRHADVIPVRRRGDSRGSLLSPRPVSYLKGSSGGPLLCPSGHVVGIFRAAVCTRGVAKAVDFIPVESMETTMRGGGGSGGETVRFQSGGSGGDELILCPLDLGGSGGTGHHHHHH
B3: TVMV-PDZ^dom with C-terminal HCV-inducible AI-domain (protein)
chain: SGGSGGSMEIRVRVEKDPELGFSISGGVGGRGNPFRPDDDGIFVTRVQPEGPASKLLQPGDKIIQANGYSFINIEHGQAVSLLKTFQNTVELIIVREVSSGGRGGSGGSGGSGGSGGSGGSSKALLKGVRDFNPISACVCLLENSSDGHSERLFGIGFGPYIIANQHLFRRNNGELTIKTMHGEFKVKNSTQLQMKPVEGRDIIVIKMAKDFPPFPQKLKFRQPTIKDRVCMVSTNFQQKSVSSLVSESSHIVHKEDTSFWQHWITTKDGQCGSPLVSIIDGNILGIHSLTHTTNGSNYFVEFPEKFVATYLDAADGWCKNWKFNADKISWGSFILWEDAPESGGDEMEECASHLGSGREYVRFAPGSTHHHHHH

How the values were obtained:
[1] = molecular target: Calmodulin
[2] = molecular target: SH3^pep-EGFP-PDZ^pep

Row | Protein | TVMV protease activity (degradation of fluorogenic TVMV substrate peptide) [1] | HCV protease activity (quenched fluorescent HCV substrate) [2]
1 | B1 | releasing inhibition of the TVMV protease by the autoinhibitor peptide | –
2 | B2 | – | resulting in reciprocal cleavage of the TVMV and HCV protease cleavage sites, thereby more fully activating both proteases
3 | B3 | – | resulting in reciprocal cleavage of the TVMV and HCV protease cleavage sites, thereby more fully activating both proteases
